Assay results reported in US20250339569A1, “CARBONIC ANHYDRASE IX LIGANDS” (priority 2021, published 2025).

How the values were obtained:
[1] = biological target: murine carbonic anhydrase 9 (CAIX) (mouse) (UniProt Q8VHB5); assay: radioligand saturation binding on CHO-msCAIX cells, 8 h at 37 °C, experiment i
[2] = biological target: murine carbonic anhydrase 9 (CAIX) (mouse) (UniProt Q8VHB5); assay: radioligand saturation binding on CHO-msCAIX cells, 8 h at 37 °C, single experiment

Chain of murine carbonic anhydrase 9 (CAIX) (mouse) (Q8VHB5 32-437 limits assumed): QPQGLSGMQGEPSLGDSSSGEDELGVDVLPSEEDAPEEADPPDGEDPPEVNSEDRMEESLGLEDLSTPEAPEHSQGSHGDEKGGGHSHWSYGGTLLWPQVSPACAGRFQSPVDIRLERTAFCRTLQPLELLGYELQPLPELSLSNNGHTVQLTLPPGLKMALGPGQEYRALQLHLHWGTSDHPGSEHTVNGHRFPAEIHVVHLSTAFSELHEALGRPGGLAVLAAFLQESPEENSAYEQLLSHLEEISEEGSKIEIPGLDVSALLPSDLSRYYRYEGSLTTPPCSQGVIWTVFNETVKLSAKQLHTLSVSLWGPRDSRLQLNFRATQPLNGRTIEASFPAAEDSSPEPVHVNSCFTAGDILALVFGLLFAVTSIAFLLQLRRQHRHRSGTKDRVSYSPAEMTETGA

Bmax [1]: 5.6 fmol/µg prot | pKd [1]: 7.2 -log10(M) | Mean Bmax [2]: 5.6 fmol/µg prot
Substance: [^111In]In-DPI-4452 (peptide)
